In paper doi:10.1101/2020.08.17.253781 (2020):

Target: GST-LOV2GIVe (L) (Avena sativa | , UniProt O49003)

B1: His-Gαi3 (natural protein)
chain: MGCTLSAEDKAAVERSKMIDRNLREDGEKAAKEVKLLLLGAGESGKSTIVKQMKIIHEDGYSEDECKQYKVVVYSNTIQSIIAIIRAMGRLKIDFGEAARADDARQLFVLAGSAEEGVMTSELAGVIKRLWRDGGVQACFSRSREYQLNDSASYYLNDLDRISQTNYIPTQQDVLRTRVKTTGIVETHFTFKELYFKMFDVGGQRSERKKWIHCFEGVTAIIFCVALSDYDLVLAEDEEMNRMHESMKLFDSICNNKWFTDTSIILFLNKKDLFEEKIKRSPLTICYPEYTGSNTYEEAAAYIQCQFEDLNRRKDTKEVYTHFTCATDTKNVQFVFDAVTDVIIKNNLKECGLY
Kd: 270 nM
